The record followed here is publication PMC4670554 (Nuclear medicine and biology, 2014).

One data set deals with U87MG gliobastoma tumors. As to the kind of experiment: in vivo. Also noted: species or system mice. The following applies: mouse.
A short description of the next data set: in vivo. Set-up: species or system mice. The following applies: female, athymic nu/nu nude, mouse, total radioactivity.

For `N=C(N)NCCC[C@@H]1NC(=O)[C@H](CCCCNC(=S)Nc2ccc(CCCCCC(CN3CCN(CC(=O)O)CCN(CC(=O)O)CC3)N(CC(=O)O)CC(=O)O)cc2)NC(=O)[C@@H](Cc2ccc(O)cc2)NC(=O)[C@H](CC(=O)O)NC(=O)CNC1=O` (stereo partly shown) [^177Lu-5p-C-NETA-c(RGDyK), metal not drawn], the “Radioactivity in the blood” value with U87MG gliobastoma tumors is “completely cleared”. Further, the tissue uptake at 4 h in the data set “in vivo” (100 ug, Tumor uptake, blocked) was 0.6 ± 0.14 %ID/g; in the data set “in vivo” (Tumor uptake) it was 1.15 ± 0.27 %ID/g. The tissue uptake at 1 h is 1.59 ± 0.22 %ID/g in “in vivo” (Liver uptake) and 0.46 ± 0.06 %ID/g in “in vivo” (Radioactivity in the blood). The tissue uptake at 24 h came to 0.32 ± 0.06 %ID/g in “in vivo” (Liver uptake) and 10.7 ± 0.38 %ID/g in “in vivo” (Tumor uptake).
